Earlier results as cited in patent US20200069786A1, “COMPOSITION AND PROCESS FOR PREPARING VACCINE” (TREOS BIO ZRT., priority 2018, published 2020).
Read-outs that look alike come from different tables or passages of the source.

System: TSA
[1] = TSA expression rate in BLADDER cancer
[2] = TSA expression rate in Cervical cancer
[3] = TSA expression rate in Esophageal
[4] = TSA expression rate in GASTRIC cancer
[5] = TSA expression rate in HEAD and NECK
[6] = TSA expression rate in LEUKEMIAS
[7] = TSA expression rate in LYMPHOMAS
[8] = TSA expression rate in MELANOMA
[9] = TSA expression rate in PEDIATRIC
[10] = TSA expression rate in PROSTATE cancer

Row | Molecule | TSA Expression Rate (ER) (BRAIN) [%] | TSA Expression Rate (ER) (BREAST) [%] | TSA Expression Rate (ER) (HCC) [%] | TSA Expression Rate (ER) (LUNG) [%] | TSA Expression Rate (ER) (OVARIAN) [%] | TSA Expression Rate (ER) (PANCREATIC) [%] | TSA Expression Rate (ER) (THYROID) [%] | Expression Rate (ER) % [1] [%] | Expression Rate (ER) % (TSA expression rate in CRC) [%] | Expression Rate (ER) % [2] [%] | Expression Rate (ER) % [3] [%] | Expression Rate (ER) % [4] [%] | Expression Rate (ER) % [5] [%] | Expression Rate (ER) % (TSA expression rate in Kidney) [%] | Expression Rate (ER) % [6] [%] | Expression Rate (ER) % [7] [%] | Expression Rate (ER) % [8] [%] | Expression Rate (ER) % [9] [%] | Expression Rate (ER) % [10] [%] | Expression Rate (ER) % (TSA expression rate in LUNG cancer) [%]
1 | MAGE-A3 (protein, UniProt P43357 1-314, looked up) Melanoma-associated antigen 3: MPLEQRSQHCKPEEGLEARGEALGLVGAQAPATEEQEAASSSSTLVEVTLGEVPAAESPDPPQSPQGASSLPTTMNYPLWSQSYEDSSNQEEEGPSTFPDLESEFQAALSRKVAELVHFLLLKYRAREPVTKAEMLGSVVGNWQYFFPVIFSKASSSLQLVFGIELMEVDPIGHLYIFATCLGLSYDGLLGDNQIMPKAGLLIIVLAIIAREGDCAPEEKIWEELSVLEVFEGREDSILGDPKKLLTQHFVQENYLEYRQVPGSDPACYEFLWGPRALVETSYVKVLHHMVKISGGPHISYPPLHEWVLREGEE | 42 | 28 | 34 | 37 | 30 | 11 | 22 | 42 | 22 | 16 | 66 | 37 | 40 | 27 | 65 | 17 | 60 | 76 | 15 | –
2 | SCP3a (protein, UniProt Q8IZU3 1-236, looked up) Synaptonemal complex protein 3: MVSSGKKYSRKSGKPSVEDQFTRAYDFETEDKKDLSGSEEDVIEGKTAVIEKRRKKRSSAGVVEDMGGEVQNMLEGVGVDINKALLAKRKRLEMYTKASLKTSNQKIEHVWKTQQDQRQKLNQEYSQQFLTLFQQWDLDMQKAEEQEEKILNMFRQQQKILQQSRIVQSQRLKTIKQLYEQFIKSMEELEKNHDNLLTGAQNEFKKEMAMLQKKIMMETQQQEIASVRKSLQSMLF | – | – | – | – | 25 | – | – | – | – | – | – | – | – | – | 47 | – | – | – | – | –
3 | MAGE-A1 (protein, UniProt P43355 1-309, looked up) Melanoma-associated antigen 1: MSLEQRSLHCKPEEALEAQQEALGLVCVQAATSSSSPLVLGTLEEVPTAGSTDPPQSPQGASAFPTTINFTRQRQPSEGSSSREEEGPSTSCILESLFRAVITKKVADLVGFLLLKYRAREPVTKAEMLESVIKNYKHCFPEIFGKASESLQLVFGIDVKEADPTGHSYVLVTCLGLSYDGLLGDNQIMPKTGFLIIVLVMIAMEGGHAPEEEIWEELSVMEVYDGREHSAYGEPRKLLTQDLVQEKYLEYRQVPDSDPARYEFLWGPRALAETSYVKVLEYVIKVSARVRFFFPSLREAALREEEEGV | 41 | 31 | 56 | 42 | 24 | 27 | 17 | 34 | 14 | 17 | 46 | 31 | 23 | 11 | 20 | 9 | 37 | 44 | 13 | –
4 | PLAC1 (protein, UniProt Q9HBJ0 23-212, looked up) Placenta-specific protein 1: QSPMTVLCSIDWFMVTVHPFMLNNDVCVHFHELHLGLGCPPNHVQPHAYQFTYRVTECGIRAKAVSQDMVIYSTEIHYSSKGTPSKFVIPVSCAAPQKSPWLTKPCSMRVASKSRATAQKDEKCYEVFSLSQSSQRPNCDCPPCVFSEEEHTQVPCHQAGAQEAQPLQPSHFLDISEDWSLHTDDMIGSM | – | 4 | 41 | 68 | 21 | 44 | – | – | 27 | – | – | – | – | – | – | – | – | – | 100 | –
5 | MAGE-C1 (protein, UniProt O60732 1-1142, looked up) Melanoma-associated antigen C1: MGDKDMPTAGMPSLLQSSSESPQSCPEGEDSQSPLQIPQSSPESDDTLYPLQSPQSRSEGEDSSDPLQRPPEGKDSQSPLQIPQSSPEGDDTQSPLQNSQSSPEGKDSLSPLEISQSPPEGEDVQSPLQNPASSFFSSALLSIFQSSPESTQSPFEGFPQSVLQIPVSAASSSTLVSIFQSSPESTQSPFEGFPQSPLQIPVSRSFSSTLLSIFQSSPERTQSTFEGFAQSPLQIPVSPSSSSTLLSLFQSFSERTQSTFEGFAQSSLQIPVSPSFSSTLVSLFQSSPERTQSTFEGFPQSPLQIPVSSSSSSTLLSLFQSSPERTHSTFEGFPQSLLQIPMTSSFSSTLLSIFQSSPESAQSTFEGFPQSPLQIPGSPSFSSTLLSLFQSSPERTHSTFEGFPQSPLQIPMTSSFSSTLLSILQSSPESAQSAFEGFPQSPLQIPVSSSFSYTLLSLFQSSPERTHSTFEGFPQSPLQIPVSSSSSSSTLLSLFQSSPECTQSTFEGFPQSPLQIPQSPPEGENTHSPLQIVPSLPEWEDSLSPHYFPQSPPQGEDSLSPHYFPQSPPQGEDSLSPHYFPQSPQGEDSLSPHYFPQSPPQGEDSMSPLYFPQSPLQGEEFQSSLQSPVSICSSSTPSSLPQSFPESSQSPPEGPVQSPLHSPQSPPEGMHSQSPLQSPESAPEGEDSLSPLQIPQSPLEGEDSLSSLHFPQSPPEWEDSLSPLHFPQFPPQGEDFQSSLQSPVSICSSSTSLSLPQSFPESPQSPPEGPAQSPLQRPVSSFFSYTLASLLQSSHESPQSPPEGPAQSPLQSPVSSFPSSTSSSLSQSSPVSSFPSSTSSSLSKSSPESPLQSPVISFSSSTSLSPFSEESSSPVDEYTSSSDTLLESDSLTDSESLIESEPLFTYTLDEKVDELARFLLLKYQVKQPITKAEMLTNVISRYTGYFPVIFRKAREFIEILFGISLREVDPDDSYVFVNTLDLTSEGCLSDEQGMSQNRLLILILSIIFIKGTYASEEVIWDVLSGIGVRAGREHFAFGEPRELLTKVWVQEHYLEYREVPNSSPPRYEFLWGPRAHSEVIKRKVVEFLAMLKNTVPITFPSSYKDALKDVEERAQAIIDTTDDSTATESASSSVMSPSFSSE | 13 | 16 | 20 | – | 20 | 0 | 22 | 27 | – | – | 12 | 6 | 15 | 0 | 70 | 13 | 45 | 39 | – | 19
6 | EpCAM (protein, UniProt P16422 24-314, looked up) Epithelial cell adhesion …: QEECVCENYKLAVNCFVNNNRQCQCTSVGAQNTVICSKLAAKCLVMKAEMNGSKLGRRAKPEGALQNNDGLYDPDCDESGLFKAKQCNGTSMCWCVNTAGVRRTDKDTEITCSERVRTYWIIIELKHKAREKPYDSKSLRTALQKEITTRYQLDPKFITSILYENNVITIDLVQNSSQKTQNDVDIADVAYYFEKDVKGESLFHSKKMDLTVNGEQLDLDPGQTLIYYVDEKAPEFSMQGLKAGVIAVIVVVVIAVVAGIVVLVISRKKRMAKYEKAEIKEMGEMHRELNA | 16 | 76 | 41 | 78 | 92 | 85 | 83 | 54 | 88 | 36 | 81 | 90 | – | 55 | – | – | – | – | 98 | –
